Laboratory results taken from the supplement of paper PMC7125110.
± gives the standard error. This sample holds only a part of the variants without activity.

B1: glmS ribozyme (parent)
chain: AUAAAAGCGCCAGAACUACAGAAAUGUAGUUGACGAGGAGGAGGUUUAUCGAAUUUUCGGCGGAUGCCUCCAAA

Tests used:
Settings in all cases: with glucosamine-6-phosphate
glucosamine-6-phosphate [1] = variants of: B1; test: self-cleavage kobs at 40 uM GlcN6P; higher = faster cleavage; RNA array
In short: (§1)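 The measurements used barcoded ribozyme variants on sequenced MiSeq chips, transcribed in situ by E. coli RNA polymerase and tracked at 37 °C with a hybridised Cy3 probe. Glucosamine-6-phosphate, 40 μM to 10 mM in HEPES/KCl/Mg(OAc)2 buffer, was flowed in while tiles were imaged over ~14 h. Baseline-normalised signals, also normalised to non-cleaving reference variants, gave per-tile medians that were fit to one- or two-exponential decays for kobs. kcat and KM resulted from weighted Michaelis–Menten fits across concentrations.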

glucosamine-6-phosphate [2] = variants of: B1; test: self-cleavage kobs at 10000 uM GlcN6P; higher = faster cleavage; RNA array
In short: as §1

glucosamine-6-phosphate [3] = variants of: B1; test: self-cleavage kobs at 2500 uM GlcN6P; higher = faster cleavage; RNA array
In short: as §1

glucosamine-6-phosphate [4] = variants of: B1; test: self-cleavage kobs at 160 uM GlcN6P; higher = faster cleavage; RNA array
In short: as §1

glucosamine-6-phosphate [5] = variants of: B1; test: self-cleavage kobs at 640 uM GlcN6P; higher = faster cleavage; RNA array
In short: as §1

Row | Variant | self-cleavage kobs at 40 uM GlcN6P (glucosamine-6-phosphate [1]) [s⁻¹] | self-cleavage kobs at 10000 uM GlcN6P (glucosamine-6-phosphate [2]) [s⁻¹] | self-cleavage kobs at 2500 uM GlcN6P (glucosamine-6-phosphate [3]) [s⁻¹] | self-cleavage kobs at 160 uM GlcN6P (glucosamine-6-phosphate [4]) [s⁻¹] | self-cleavage kobs at 640 uM GlcN6P (glucosamine-6-phosphate [5]) [s⁻¹]
1 | G9C C10U G44A U54A C71G | < 1e-05 | – | – | – | –
2 | G9C C58G C68A | < 1e-05 | – | – | – | –
3 | C10U G59C C68A | < 1e-05 | < 1e-05 | – | – | –
4 | C10G U47A G60U C61U | < 1e-05 | – | – | – | –
5 | C10U U31C C34U | < 1e-05 | – | – | – | –
6 | C11A G37C A39G G41A U47G | < 1e-05 | < 1e-05 | – | – | –
7 | C11A G44U G59U C67A | 0.000322 ± 8.1e-05 | 0.00946 ± 0.002 | – | – | –
8 | G9C C34A A42U G43A | < 1e-05 | – | – | – | –
9 | C10G G32U A36C G40U G63U | < 1e-05 | < 1e-05 | < 1e-05 | – | –
10 | C10G G13U A14U | < 1e-05 | – | – | – | –
11 | C11A A48U | < 1e-05 | – | < 1e-05 | < 1e-05 | < 1e-05
12 | C10U U31A A53C U55G | < 1e-05 | – | – | – | –
13 | G9U C10G | < 1e-05 | < 1e-05 | < 1e-05 | < 1e-05 | < 1e-05
14 | C10A C34G | < 1e-05 | < 1e-05 | < 1e-05 | – | < 1e-05
15 | C10U U45G | < 1e-05 | < 1e-05 | – | < 1e-05 | < 1e-05
16 | C10U A15U G43A A52G | < 1e-05 | < 1e-05 | – | – | –
17 | C10U U45A C50U G66A | < 1e-05 | < 1e-05 | – | – | –
18 | C10U G44A G51U | < 1e-05 | – | – | – | –
19 | C10A G43U U45A | < 1e-05 | – | < 1e-05 | – | < 1e-05
20 | C10G G29C G40A | < 1e-05 | < 1e-05 | – | – | –
21 | G9U A15U | < 1e-05 | – | – | < 1e-05 | < 1e-05
22 | C10G G43C U46A G60A G62C | < 1e-05 | – | – | – | –
23 | C10G G37A G66U U69G C71A | < 1e-05 | – | – | < 1e-05 | –
24 | C10G A14G C16A G41C | < 1e-05 | < 1e-05 | – | – | –
25 | C11G A64U C67A | < 1e-05 | < 1e-05 | – | – | –
26 | C10A U46G C68G | 0.000169 ± 4.8e-05 | 6.66e-05 ± 2.2e-05 | – | – | –
27 | G9A U31G | < 1e-05 | – | < 1e-05 | < 1e-05 | –

Row | Variant | self-cleavage kobs at 40 uM GlcN6P (glucosamine-6-phosphate [1]) [s⁻¹] | self-cleavage kobs at 10000 uM GlcN6P (glucosamine-6-phosphate [2]) [s⁻¹] | self-cleavage kobs at 2500 uM GlcN6P (glucosamine-6-phosphate [3]) [s⁻¹] | self-cleavage kobs at 160 uM GlcN6P (glucosamine-6-phosphate [4]) [s⁻¹] | self-cleavage kobs at 640 uM GlcN6P (glucosamine-6-phosphate [5]) [s⁻¹]
28 | C10U U54A U57C | < 1e-05 | – | – | – | –
29 | C10G A39C U45A U54G G62C | < 1e-05 | < 1e-05 | – | – | –
30 | C10U C11A | < 1e-05 | – | – | < 1e-05 | –
31 | C11A A15C U45G C70U | < 1e-05 | – | – | – | –
32 | C10A C11U A33C U49G C67G | < 1e-05 | – | < 1e-05 | – | –
33 | C10G G43U U47G C61A | < 1e-05 | – | < 1e-05 | – | < 1e-05
34 | G9U G29C A33U A64U | < 1e-05 | < 1e-05 | < 1e-05 | – | < 1e-05
35 | C11G C34A A64C | < 1e-05 | < 1e-05 | – | – | –
36 | G9A G62U | < 1e-05 | – | < 1e-05 | < 1e-05 | –
37 | C10U U65A | < 1e-05 | < 1e-05 | < 1e-05 | < 1e-05 | < 1e-05
38 | C10U U55G | < 1e-05 | 2.49e-05 ± 9.6e-06 | – | < 1e-05 | –
39 | G9A U65C | < 1e-05 | < 1e-05 | < 1e-05 | < 1e-05 | < 1e-05
40 | G9C C67G | < 1e-05 | < 1e-05 | < 1e-05 | < 1e-05 | < 1e-05
41 | C10A G29C U56C A64G | < 1e-05 | – | – | – | –
42 | C10U G41U | < 1e-05 | < 1e-05 | < 1e-05 | < 1e-05 | < 1e-05
43 | C10U G13A C68A | < 1e-05 | – | – | – | –
44 | G9U A33G G38U G44U C58A | < 1e-05 | – | – | – | –
45 | C10G C34U | < 1e-05 | < 1e-05 | < 1e-05 | < 1e-05 | < 1e-05
46 | G9C U65A | < 1e-05 | – | < 1e-05 | – | –
47 | G9U U56G C71A | < 1e-05 | – | – | – | –
48 | C11G G35C C70G | 8.82e-05 ± 4e-05 | – | – | – | –
49 | G9U G32C A42U | < 1e-05 | < 1e-05 | – | – | < 1e-05
50 | C10U G13C A36C | < 1e-05 | – | – | – | –
51 | C10U G37U U45A | < 1e-05 | – | – | – | –
52 | C11A A33U U45A | < 1e-05 | – | < 1e-05 | – | < 1e-05
53 | C11A U46G A52C | < 1e-05 | < 1e-05 | – | – | –
